# Data as given in paper PMC10655381.
# Target: recombinant glycerol dehydratase 2eGDHt αβγ heterotrimer from Klebsiella pneumoniae 2e (Klebsiella pneumoniae 2e) (UniProt Q59476)
# Experiment: native gel or EMSA; Native-PAGE of purified recombinant 2eGDHt; heterotrimer to dimer of heterotrimers
substance,measurement,value
recombinant glycerol dehydratase 2eGDHt αβγ heterotrimer from Klebsiella pneumoniae 2e (from UniProt Q59476 1-555; A6TE99 1-194; Q59475 1-141) (complex),stoichiometry N,2
